# Ends that are not written are not given here.
# B1: human α-CGRP 1-36-COOH (peptide)
# peptide: ACDTATCVTHRLAGLLSRSGGVVKNNFVPTNVGSKA-OH
# modifications: ends and bridges not checked
# notes: also called Peptide 1-36 (not amidated at the C-terminus)
# Molecular target: T1, antibody G1 Fab fragment
# T1 construct: purified on Ni-NTA (tag not described); also called antibody G1 Fabs
# Experiment: Biacore, 10 uM peptide with 50 nM G1 Fab over human α-CGRP on chip
# T1 sequence (VH, as listed by the source, chain 1 of 2): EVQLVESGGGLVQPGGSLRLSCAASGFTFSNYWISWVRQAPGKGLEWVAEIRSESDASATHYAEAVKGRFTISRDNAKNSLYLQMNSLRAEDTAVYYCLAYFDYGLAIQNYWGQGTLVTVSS
# T1 sequence (VL, as listed by the source, chain 2 of 2): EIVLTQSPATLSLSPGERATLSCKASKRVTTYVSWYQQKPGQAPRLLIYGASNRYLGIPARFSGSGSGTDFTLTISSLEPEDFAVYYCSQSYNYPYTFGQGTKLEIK
row,% of binding blocked [%],Binder
1,~40,B1
2,100,SGGVVKNNFVPTNVGSAAF-NH2 (also: N-terminal biotin when captured on the chip) [human α-CGRP K35A (19-37)]
3,100,SGGVVKNNFVATNVGSKAF-NH2 [human α-CGRP P29A (19-37)]
4,100,SGGVVKNNFVPTNVGSEAF-NH2 (also: N-terminal biotin when captured on the chip) [human α-CGRP K35E (19-37)]
5,100,SGGVVKNNFVPTNVGSMAF-NH2 (also: N-terminal biotin when captured on the chip) [human α-CGRP K35M (19-37)]
6,100,"SCNTATCVTHRLAGLLSRSGGVVKDNFVPTNVGSEAF-NH2 (ends and bridges not checked; also: N-terminal biotin when captured on the chip, also called rat α (1-37); α-rat) [rat α-CGRP (1-37)]"

# — patent US20170081395A1 (LABRYS BIOLOGICS, published 2017)
